Measured values: paper PMC3412365 (The Journal of neuroscience : the official journal of the …, 2011)

T1: RGS9-2 (mouse (endogenous in striatum), UniProt O54828-1 1-675)
T1 sequence (looked up): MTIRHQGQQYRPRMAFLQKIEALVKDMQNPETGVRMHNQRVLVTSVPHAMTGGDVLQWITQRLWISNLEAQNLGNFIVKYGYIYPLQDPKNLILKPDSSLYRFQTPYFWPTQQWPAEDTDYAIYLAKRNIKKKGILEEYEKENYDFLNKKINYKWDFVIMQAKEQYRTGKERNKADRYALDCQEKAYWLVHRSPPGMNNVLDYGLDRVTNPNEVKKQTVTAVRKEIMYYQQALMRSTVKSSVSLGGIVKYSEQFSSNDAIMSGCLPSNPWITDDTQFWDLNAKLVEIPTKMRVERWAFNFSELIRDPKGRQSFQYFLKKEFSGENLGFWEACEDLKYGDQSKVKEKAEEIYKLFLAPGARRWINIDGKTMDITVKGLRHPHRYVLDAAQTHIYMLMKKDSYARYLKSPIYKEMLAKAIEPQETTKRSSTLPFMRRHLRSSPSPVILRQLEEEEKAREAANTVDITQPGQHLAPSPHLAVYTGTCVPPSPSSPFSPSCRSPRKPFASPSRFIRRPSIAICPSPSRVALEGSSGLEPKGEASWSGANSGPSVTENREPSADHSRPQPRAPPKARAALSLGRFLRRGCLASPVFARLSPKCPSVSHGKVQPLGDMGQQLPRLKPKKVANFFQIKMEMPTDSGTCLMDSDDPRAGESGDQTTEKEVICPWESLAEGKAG

B1: Gαq (natural protein, mouse (endogenous in striatum), UniProt P21279 1-359, looked up)
chain: MTLESIMACCLSEEAKEARRINDEIERQLRRDKRDARRELKLLLLGTGESGKSTFIKQMRIIHGSGYSDEDKRGFTKLVYQNIFTAMQAMIRAMDTLKIPYKYEHNKAHAQLVREVDVEKVSAFENPYVDAIKSLWNDPGIQECYDRRREYQLSDSTKYYLNDLDRVADPSYLPTQQDVLRVRVPTTGIIEYPFDLQSVIFRMVDVGGQRSERRKWIHCFENVTSIMFLVALSEYDQVLVESDNENRMEESKALFRTIITYPWFQNSSVILFLNKKDLLEEKIMYSHLVDYFPEYDGPQRDAQAAREFILKMFVDLNPDSDKIIYSHFTCATDTENIRFVFAAVKDTILQLNLKEYNLV
B2: Gβ5 (natural protein, mouse (endogenous in striatum), UniProt P62881-2 1-353, looked up)
chain: MATDGLHENETLASLKSEAESLKGKLEEERAKLHDVELHQVAERVEALGQFVMKTRRTLKGHGNKVLCMDWCKDKRRIVSSSQDGKVIVWDSFTTNKEHAVTMPCTWVMACAYAPSGCAIACGGLDNKCSVYPLTFDKNENMAAKKKSVAMHTNYLSACSFTNSDMQILTASGDGTCALWDVESGQLLQSFHGHGADVLCLDLAPSETGNTFVSGGCDKKAMVWDMRSGQCVQAFETHESDVNSVRYYPSGDAFASGSDDATCRLYDLRADREVAIYSKESIIFGASSVDFSLSGRLLFAGYNDYTINVWDVLKGSRVSILFGHENRVSTLRVSPDGTAFCSGSWDHTLRVWA

Target: T1, RGS9-2
Experiment: co-IP

Binder | co-IP signal after chronic morphine, % compared with vehicle-treated mice
B1 | 216%
B2 | 171%
